# Laboratory results reported in patent US20100196919A1, “PEPTIDES, ANTIBODIES AND FRAGMENTS THEREOF FOR THE TREATMENT AND DIAGNOSTIC OF CELIAC DISEASE” (UNIVERSITÀ DEGLI STUDI DI VERONA, priority 2007, published 2010).
# T1: solid-phase tTG (Homo sapiens, UniProt P21980)
# T1 construct: purchased Eurospital
# T1 sequence (P21980 1-687): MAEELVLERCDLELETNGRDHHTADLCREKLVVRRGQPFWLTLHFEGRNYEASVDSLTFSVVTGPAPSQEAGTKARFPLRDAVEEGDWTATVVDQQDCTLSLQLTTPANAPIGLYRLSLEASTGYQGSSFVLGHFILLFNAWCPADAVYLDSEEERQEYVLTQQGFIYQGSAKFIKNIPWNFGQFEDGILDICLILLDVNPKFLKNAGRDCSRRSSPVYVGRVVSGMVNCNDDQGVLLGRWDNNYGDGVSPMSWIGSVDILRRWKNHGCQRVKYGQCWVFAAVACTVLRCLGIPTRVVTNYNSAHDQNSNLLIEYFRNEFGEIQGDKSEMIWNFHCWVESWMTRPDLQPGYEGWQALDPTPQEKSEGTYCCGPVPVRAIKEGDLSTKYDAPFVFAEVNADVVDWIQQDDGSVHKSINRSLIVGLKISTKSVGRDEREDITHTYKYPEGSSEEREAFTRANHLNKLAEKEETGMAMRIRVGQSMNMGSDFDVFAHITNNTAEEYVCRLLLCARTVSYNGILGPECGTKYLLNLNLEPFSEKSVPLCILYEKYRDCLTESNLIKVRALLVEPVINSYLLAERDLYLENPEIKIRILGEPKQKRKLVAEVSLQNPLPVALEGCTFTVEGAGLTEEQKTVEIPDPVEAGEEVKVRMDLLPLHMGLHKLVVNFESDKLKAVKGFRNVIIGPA
# T2: solid-phase desmoglein 1 (Homo sapiens, UniProt Q02413)
# T2 construct: purchased MBL
# T2 sequence (Q02413 50-1049): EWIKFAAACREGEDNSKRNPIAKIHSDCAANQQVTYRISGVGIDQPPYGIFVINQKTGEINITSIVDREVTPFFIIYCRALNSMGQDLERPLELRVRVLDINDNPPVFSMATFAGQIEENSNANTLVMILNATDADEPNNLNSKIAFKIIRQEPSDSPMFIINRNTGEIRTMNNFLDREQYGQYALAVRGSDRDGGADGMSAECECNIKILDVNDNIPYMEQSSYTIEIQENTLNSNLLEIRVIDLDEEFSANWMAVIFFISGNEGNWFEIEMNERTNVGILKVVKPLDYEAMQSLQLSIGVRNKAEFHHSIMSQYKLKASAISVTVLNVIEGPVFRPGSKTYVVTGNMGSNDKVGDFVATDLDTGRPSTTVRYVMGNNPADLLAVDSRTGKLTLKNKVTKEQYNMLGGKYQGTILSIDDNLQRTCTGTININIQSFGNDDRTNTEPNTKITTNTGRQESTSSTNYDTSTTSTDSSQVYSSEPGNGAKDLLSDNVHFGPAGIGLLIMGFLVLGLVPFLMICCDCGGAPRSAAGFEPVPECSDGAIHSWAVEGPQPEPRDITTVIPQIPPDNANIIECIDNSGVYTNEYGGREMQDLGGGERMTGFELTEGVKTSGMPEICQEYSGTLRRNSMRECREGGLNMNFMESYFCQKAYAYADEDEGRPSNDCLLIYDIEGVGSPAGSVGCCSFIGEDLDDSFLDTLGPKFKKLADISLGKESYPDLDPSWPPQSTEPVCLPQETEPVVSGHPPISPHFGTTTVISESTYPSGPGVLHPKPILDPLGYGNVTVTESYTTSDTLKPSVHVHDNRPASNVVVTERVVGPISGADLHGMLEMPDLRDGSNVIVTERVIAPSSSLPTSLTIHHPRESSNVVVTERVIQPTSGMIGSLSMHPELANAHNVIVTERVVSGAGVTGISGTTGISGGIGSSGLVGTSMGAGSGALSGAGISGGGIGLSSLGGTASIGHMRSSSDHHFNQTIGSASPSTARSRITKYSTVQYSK
# Assays:
# solid-phase tTG = target: T1, solid-phase tTG; experiment: Competitive ELISA using tTG-coated plates; assay type: binding; conditions: pre-incubation with competitor, 0.6-20 μg/ml
# Procedure: (§1) The direct and competitive ELISA for antibody binding to the synthetic peptides have already been described elsewhere. Briefly, the synthetic peptides were used at a concentration of 20 μg/ml in PBS to coat polystyrene plates (Nunc, Roskilde, Denmark). Plates were then blocked for 1 h with PBS 3% BSA. Serum samples were diluted in diluting buffer (PBS 1% BSA 0.05% Tween) and incubated on the plates for 3 h at room temperature. Plates were then washed twice with PBS 1% Tween and twice with PBS. Bound antibodies were detected by an alkaline phosphatase-conjugated anti-human IgA antiserum (1:1,000 in diluting buffer) (Sigma, St. Louis, Mo., United States) or with an alkaline phosphatase-conjugated anti-human IgG antiserum (1:2,000 in diluting buffer) (Sigma). In some experiments, an alkaline phosphatase-conjugated anti-rabbit IgG antiserum (1:2,000 in diluting buffer) (Sigma) was also used. The secondary reagents were incubated overnight at 4° C.; plates were then washed twice with PBS/Tween and twice with PBS. The alkaline phosphatase substrate (Sigma) diluted in bicarbonate buffer was then added to the wells and the plates read after 30 min or 1 h at a spectrophotometer set at 450 nm. For the competitive assay, the amount of antibody (or serum dilution) that gave 50% of the maximum binding to the antigen on the solid phase was pre-incubated for 1 h at 37° C. with different amounts of competitors (20, 10, 5, 2.5, 1.25, 0.6 μg/ml) or buffer (diluting buffer as the one used in the direct ELISA) and then transferred to the antigen-coated plates. The assay was then carried on as the direct binding assay. For the competitive ELISAs presented in this paper in particular, the following experimental conditions were used. (1) Competitive ELISA using tTG-coated plates. Plates coated with human recombinant tTG were purchased from Eurospital. Serum samples in diluting buffer (serum dilution ranged from 1:400 to 1:1,600 corresponding to 50% maximal binding to solid-phase tTG) were pre-incubated with increasing concentration of competitors (synthetic peptides or recombinant human tTG: 20, 10, 5, 2.5, 1.25, 0.6 μg/ml) for 1 h at 37° C. The mixture was then transferred to the tTG-coated plate. The remainder of the assay was performed as the direct binding assay. Results are expressed as: […]
# solid-phase HSP60 = target: T3, solid-phase HSP60 (Homo sapiens, UniProt P10809); experiment: Competitive ELISA on solid-phase HSP60; assay type: binding; conditions: pre-incubation with competitor
# T3 construct: purchased Stressgen
# Procedure: as §1, with “Serum samples in diluting buffer (serum dilution ranged from 1:400 to 1:1,600 corresponding to 50% maximal binding to solid-phase tTG) were pre-incubated with increasing concentration of competitors (synthetic peptides or recombinant human tTG: 20, 10, 5, 2.5, 1.25, 0.6 μg/ml) for 1 h at 37° C. The mixture was then transferred to the tTG-coated plate. The remainder of the assay was performed as the direct binding assay.” left out
# Human monocytes = experiment: Stimulation of monocytes, FACS analysis of activation markers; assay type: cell-based; conditions: monocytes incubated overnight, antibody preparations 20 μg/ml, LPS 1 μg/ml
# Procedure: Human monocytes were isolated from normal donors and incubated overnight at a density of 1×10^6 cells/ml in RPMI 10% FCS in 24-well plates in the presence of the antibody preparations (20 μg/ml) or lipopolysaccharide (LPS) (1 μg/ml) (Sigma). The medium used and all the antibody preparations were treated with Detoxi-gel endotoxin-removing columns (Pierce). Presence of LPS contaminants in the antibody preparation and buffers as well as in the culture medium was assessed using the HEK-Blue LPS Detection Kit (Invivogen); all the antibody preparation and buffers used throughout the study were devoided of LPS contaminants. Monocytes were then used for fluorescence-activated cell sorting (FACS) analysis.
# Cells were incubated with R-phycoerythrin directly conjugated anti-CD1, -CD83, and -CD86 antibodies for 30 min on ice. […] Samples were run on a FACScan flow cytometer (Becton Dickinson, Mountain View, Calif., United States). All the antibodies used were purchased from Immunotech (Marseille, France).
# solid-phase TLR4 peptide = target: T4, solid-phase TLR4 peptide (Homo sapiens, UniProt O00206); experiment: Competitive ELISA on solid-phase TLR4 peptide; assay type: binding; conditions: liquid-phase competitor
# T4 construct: made in house; host or cells: chemical solid-phase synthesis (FMOC)
# Procedure: as §1
# solid-phase desmoglein 1 = target: T2, solid-phase desmoglein 1; experiment: Competitive ELISA with desmoglein 1-coated plates; assay type: binding; conditions: liquid-phase competitor, 0.6-20 μg/ml
# Procedure: Desmoglein 1-coated plates were purchased from MBL (Woburn, Mass., United States). Serum samples in diluting buffer (serum dilution ranged from 1:400 to 1:800 corresponding to 50% maximal binding to solid-phase desmoglein 1) were pre-incubated with increasing concentrations of competitors (synthetic peptides and recombinant human tTG: 20, 10, 5, 2.5, 1.25, 0.6 μg/ml) for 1 h at 37° C. The mixture was then transferred to the desmoglein-coated plate. In this particular assay, the authors used the desmoglein 1 peptide as liquid-phase competitor, since the only liquid-phase recombinant desmoglein 1 available is an Fc chimera.
# [1] = system: T84 human intestinal epithelial cell line; experiment: [3H] mannitol flux across T84 monolayers; assay type: cell-based; conditions: pre-incubation of antibodies with the substance; T84, 3 h
# Procedure: T84 cells obtained from the American Type Culture Collection (Manassas, Va., United States) were grown in a 5% CO2 humidified incubator at 37° C. on 162-cm^2 flasks (Corning Costar, Acton, Mass., United States) with media containing a 1:1 mixture of Ham's F-12 nutrient mixture and DMEM supplemented with 6% heat-inactivated fetal bovine serum, 15 mM HEPES, 14.3 mM NaHCO3, and antibiotics (penicillin and streptomycin)-antimycotics (pH 7.4). Cells were passaged weekly on reaching confluence. For experiments, cells were plated onto collagen-coated permeable supports, where they were fed every 3 d and used from days 7-14 (within fifth passage).
# Confluent T84 monolayers grown on 4.7 cm^2 transwell inserts were incubated in HEPES-phosphate-buffered Ringer solution (HPBR, containing 135 mM NaCl, 5 mM KCl, 3.33 mM NaHPO4, 1 mM CaCl2, 1 mM MgCl2, 10 mM glucose, and 5 mM HEPES [pH 7.4]) for 30 min, followed by treatment with basolaterally applied Igs (20 μg/ml) in the presence of [^3H] mannitol (5 μCi/ml) in the basolateral compartment. Apical solution was sampled every 30 min (to detect the presence of [^3H] mannitol) and exchanged with fresh HPBR buffer solution for a total of 4 h. The collected apical samples were placed in vials containing scintillation fluid and analyzed for the presence of [^3H] mannitol by scintillation counter.
# T3 sequence (P10809 27-573): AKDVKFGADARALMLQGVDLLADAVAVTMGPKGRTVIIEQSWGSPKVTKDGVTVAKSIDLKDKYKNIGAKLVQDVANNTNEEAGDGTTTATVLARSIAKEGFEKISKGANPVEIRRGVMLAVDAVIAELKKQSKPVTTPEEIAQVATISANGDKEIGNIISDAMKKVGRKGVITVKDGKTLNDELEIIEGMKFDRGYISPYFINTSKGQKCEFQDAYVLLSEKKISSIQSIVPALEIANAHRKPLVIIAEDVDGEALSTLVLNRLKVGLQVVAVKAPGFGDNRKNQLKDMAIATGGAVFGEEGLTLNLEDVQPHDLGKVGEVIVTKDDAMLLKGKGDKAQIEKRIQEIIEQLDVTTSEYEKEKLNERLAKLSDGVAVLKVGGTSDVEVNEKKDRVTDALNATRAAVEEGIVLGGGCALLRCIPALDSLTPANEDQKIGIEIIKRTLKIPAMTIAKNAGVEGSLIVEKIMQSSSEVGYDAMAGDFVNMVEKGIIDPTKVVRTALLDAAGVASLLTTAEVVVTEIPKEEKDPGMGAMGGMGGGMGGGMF
Molecule,inhibition of antibody binding to solid-phase tTG by liquid-phase competitor (solid-phase tTG),inhibition of antibody binding to solid-phase HSP60 by liquid-phase competitor (solid-phase HSP60),"Percentage of positive cells, CD83 (Human monocytes; medium alone 9.4%) [%]","Percentage of positive cells, CD40 (Human monocytes; medium alone 62.3%) [%]",inhibition of binding of anti-celiac peptide antibodies to solid-phase TLR4 peptide (solid-phase TLR4 peptide),inhibition of binding of anti-celiac peptide antibodies to solid-phase desmoglein 1 (solid-phase desmoglein 1),blocking of the effect of anti-celiac peptide antibodies on cell permeability [1]
RIRVGQSMNMGS [tTG peptide],inhibited,inhibited,,,,,
lipopolysaccharide [LPS],,,45,89,,,
VVKVGGSSSLGW [celiac peptide],inhibited,inhibited,,,Inhibition,inhibited,blocked
VTLPKDSDVELP [irrelevant control peptide],not,,,,not,,not
LSSLGGTASIGH [desmoglein 1 peptide],,,,,,inhibited,
VIQVGGSNVLDI [VP-7 peptide],inhibited,inhibited,,,Inhibition,inhibited,
VLKMAGNSFQEN [TLR4 peptide],,,,,Inhibition,inhibited,
"human recombinant tTG: commercially available recombinant human tissue transglutaminase used as competitor (protein, UniProt P21980 2-687, looked up) Protein-glutamine …: AEELVLERCDLELETNGRDHHTADLCREKLVVRRGQPFWLTLHFEGRNYEASVDSLTFSVVTGPAPSQEAGTKARFPLRDAVEEGDWTATVVDQQDCTLSLQLTTPANAPIGLYRLSLEASTGYQGSSFVLGHFILLFNAWCPADAVYLDSEEERQEYVLTQQGFIYQGSAKFIKNIPWNFGQFEDGILDICLILLDVNPKFLKNAGRDCSRRSSPVYVGRVVSGMVNCNDDQGVLLGRWDNNYGDGVSPMSWIGSVDILRRWKNHGCQRVKYGQCWVFAAVACTVLRCLGIPTRVVTNYNSAHDQNSNLLIEYFRNEFGEIQGDKSEMIWNFHCWVESWMTRPDLQPGYEGWQALDPTPQEKSEGTYCCGPVPVRAIKEGDLSTKYDAPFVFAEVNADVVDWIQQDDGSVHKSINRSLIVGLKISTKSVGRDEREDITHTYKYPEGSSEEREAFTRANHLNKLAEKEETGMAMRIRVGQSMNMGSDFDVFAHITNNTAEEYVCRLLLCARTVSYNGILGPECGTKYLLNLNLEPFSEKSVPLCILYEKYRDCLTESNLIKVRALLVEPVINSYLLAERDLYLENPEIKIRILGEPKQKRKLVAEVSLQNPLPVALEGCTFTVEGAGLTEEQKTVEIPDPVEAGEEVKVRMDLLPLHMGLHKLVVNFESDKLKAVKGFRNVIIGPA",,,,,,inhibited,blocked
